Assay results taken from patent US20180195056.

Legend:
[1] = target: His14-xlGATE16-MBP
[2] = target: His14-xlLC3B-MBP

| Protein | salt sensitivity of substrate cleavage (500 nM protease, 1 h, 0° C.) [1] | substrate excess cleaved to near completion within 1 h at 25° C. [1] | cleavage efficiency at limiting substrate concentration (constant protease:substrate ratio 1:1000, 1 h, 0° C.) [2] | protease concentration sufficient to cleave 100 µM substrate within 1 h at 0° C. [2] | salt sensitivity of substrate cleavage (500 nM protease, 1 h, 0° C.) [2] | substrate cleavage (20 µM protease, 100 µM substrate, 3 h, 25° C.) [2] | substrate excess cleaved to near completion within 1 h at 37° C. [2] | cleavage efficiency at limiting substrate concentration (constant protease:substrate ratio 1:2000, 1 h, 0° C.) [1] | percent of a 6600-fold substrate excess cleaved in 1 h at 37° C. [1] | protease concentration needed to cleave 100 µM substrate within 2 h at 0° C. [1] | protease required for substrate processing at 0° C., against the other protease fragments [1] | protease required for substrate processing at 25° C., against the other protease fragments [1] | temperature dependence of substrate cleavage [2] | time for efficient cleavage (>95%) at 500 nM protease, 0° C., against full-length or N-terminally truncated enzymes [2] | temperature needed for near-complete cleavage of a 6600-fold substrate excess in 1 h [1] |
| --- | --- | --- | --- | --- | --- | --- | --- | --- | --- | --- | --- | --- | --- | --- | --- |
| xlAtg4B^14-384 (protein) ADTPDFPETAEPVWVLGRKYSALTEKEQLLNDITSRLWFTYRRNFQAIGGTGPTSDTGWGCMLRCGQMIFAQALICRHVGRDWRWDKQKPKGEYLNILTAFLDKKDSYYSIHQIAQMGVGEGKYIGQWYGPNTVAQVLRKLAVFDQWSSIAVHIAMDNTVVVDEIRRLCRAGSGESSDAGALSNGYTGDSDPSCAQWKPLVLLIPLRLGLSEINEAYIETLKHCFMVPQSLGVIGGRPNSAHYFIGYVGDELIYLDPHTTQLSVEPSDCSFIEDESFHCQHPPCRMHVSEIDPSIAVGFFCSSQEDFEDWCQHIKKLSLSGGALPMFEVVDQLPLHLSNPDVLNLTPDSSDADRLDRFFDSEDEEFEILSL | also full-length or N-terminally truncated xlAtg4B fragments showed a reduced cleavage activity at ≥1 M NaCl | near-complete cleavage of a 6600-fold substrate excess was reached for the two N-terminally shortened protease fragments already at 25 °C | full-length xlAtg4B and both N-terminally shortened fragments could cleave the xlLC3B substrate rather efficiently even at substrate concentrations as low as 3-10 µM | 1 µM of each protease fragment was sufficient to cleave 100 µM of substrate within 1 h | xlLC3B processing by full-length xlAtg4B or its N-terminally truncated fragments was remarkably insensitive towards NaCl concentrations up to 1.5 M | xlLC3B was nearly exclusively recognized by xlAtg4B^14-384 | Within 1 h at 37° C., all three enzymes were able to cleave a >3000-fold excess of the xlLC3B substrate to near completion |  |  |  |  |  |  |  |  |
| xlAtg4B^25-345 (protein) PVWVLGRKYSALTEKEQLLNDITSRLWFTYRRNFQAIGGTGPTSDTGWGCMLRCGQMIFAQALICRHVGRDWRWDKQKPKGEYLNILTAFLDKKDSYYSIHQIAQMGVGEGKYIGQWYGPNTVAQVLRKLAVFDQWSSIAVHIAMDNTVVVDEIRRLCRAGSGESSDAGALSNGYTGDSDPSCAQWKPLVLLIPLRLGLSEINEAYIETLKHCFMVPQSLGVIGGRPNSAHYFIGYVGDELIYLDPHTTQLSVEPSDCSFIEDESFHCQHPPCRMHVSEIDPSIAVGFFCSSQEDFEDWCQHIKKLSLSGGALPMFEVVDQ | The weak activity of xlAtg4B^25-345 on xlGATE16 was further reduced at salt concentrations ≥0.5 M |  | the C-terminally truncated protease showed significantly reduced cleavage already at 100-30 µM substrate concentration | 1 µM of each protease fragment was sufficient to cleave 100 µM of substrate within 1 h | Deletion of the protease's C-terminus, however, rendered the reaction salt sensitive at NaCl concentrations ≥0.5 M |  |  | Even more drastic effects were observed when cleaving xlGATE16-MBP with xlAtg4B^25-345 (FIG. 6A, right lower panel). Here, processing was poor even at 300 µM substrate concentration | could only cleave ≈30-4 0% of a 6600-fold substrate excess even at 37 °C | 500 nM of xlAtg4B^25-345 were insufficient to cleave 100 µM of xlGATE16 substrate within 2 h at 0 °C | ≈10-fold and ≈30-fold more xlAtg4B^25-345 was required for xlGATE16 processing as compared to the other protease fragments at 0 °C and 25° C., respectively | ≈10-fold and ≈30-fold more xlAtg4B^25-345 was required for xlGATE16 processing as compared to the other protease fragments at 0 °C and 25° C., respectively | The boost of xlLC3B substrate processing at higher temperatures, however, was much weaker for this protease fragment | efficient cleavage (i.e. >95% cleavage) of the xlLC3B substrate required twice as long when using xlAtg4B^25-345 instead of the full-length or just N-terminally truncated xlAtg4B enzymes |  |
| xlAtg4B^25-384 (protein) PVWVLGRKYSALTEKEQLLNDITSRLWFTYRRNFQAIGGTGPTSDTGWGCMLRCGQMIFAQALICRHVGRDWRWDKQKPKGEYLNILTAFLDKKDSYYSIHQIAQMGVGEGKYIGQWYGPNTVAQVLRKLAVFDQWSSIAVHIAMDNTVVVDEIRRLCRAGSGESSDAGALSNGYTGDSDPSCAQWKPLVLLIPLRLGLSEINEAYIETLKHCFMVPQSLGVIGGRPNSAHYFIGYVGDELIYLDPHTTQLSVEPSDCSFIEDESFHCQHPPCRMHVSEIDPSIAVGFFCSSQEDFEDWCQHIKKLSLSGGALPMFEVVDQLPLHLSNPDVLNLTPDSSDADRLDRFFDSEDEEFEILSL | also full-length or N-terminally truncated xlAtg4B fragments showed a reduced cleavage activity at ≥1 M NaCl | near-complete cleavage of a 6600-fold substrate excess was reached for the two N-terminally shortened protease fragments already at 25 °C | full-length xlAtg4B and both N-terminally shortened fragments could cleave the xlLC3B substrate rather efficiently even at substrate concentrations as low as 3-10 µM | 1 µM of each protease fragment was sufficient to cleave 100 µM of substrate within 1 h | xlLC3B processing by full-length xlAtg4B or its N-terminally truncated fragments was remarkably insensitive towards NaCl concentrations up to 1.5 M |  | Within 1 h at 37° C., all three enzymes were able to cleave a >3000-fold excess of the xlLC3B substrate to near completion |  |  |  |  |  |  |  |  |
| full-length xlAtg4B (Xenopus laevis Atg4B, residues 1-384) (protein) MDAATLTYDTLRFADTPDFPETAEPVWVLGRKYSALTEKEQLLNDITSRLWFTYRRNFQAIGGTGPTSDTGWGCMLRCGQMIFAQALICRHVGRDWRWDKQKPKGEYLNILTAFLDKKDSYYSIHQIAQMGVGEGKYIGQWYGPNTVAQVLRKLAVFDQWSSIAVHIAMDNTVVVDEIRRLCRAGSGESSDAGALSNGYTGDSDPSCAQWKPLVLLIPLRLGLSEINEAYIETLKHCFMVPQSLGVIGGRPNSAHYFIGYVGDELIYLDPHTTQLSVEPSDCSFIEDESFHCQHPPCRMHVSEIDPSIAVGFFCSSQEDFEDWCQHIKKLSLSGGALPMFEVVDQLPLHLSNPDVLNLTPDSSDADRLDRFFDSEDEEFEILSL | also full-length or N-terminally truncated xlAtg4B fragments showed a reduced cleavage activity at ≥1 M NaCl |  | full-length xlAtg4B and both N-terminally shortened fragments could cleave the xlLC3B substrate rather efficiently even at substrate concentrations as low as 3-10 µM | 1 µM of each protease fragment was sufficient to cleave 100 µM of substrate within 1 h | xlLC3B processing by full-length xlAtg4B or its N-terminally truncated fragments was remarkably insensitive towards NaCl concentrations up to 1.5 M |  | Within 1 h at 37° C., all three enzymes were able to cleave a >3000-fold excess of the xlLC3B substrate to near completion |  |  |  |  |  |  |  | the full-length enzyme required 37 °C for a similarly efficient cleavage |
